Laboratory results taken from publication PMC11408749, “Molecular mechanisms for DNA methylation defects induced by ICF syndrome‐linked mutations in DNMT3B”.

Experiments:
Test in all cases: fluorescence polarization; FP: 10 nM DNA, 20 mM Tris-HCl pH 8.0, 50 mM NaCl, 5% glycerol, 1 mM TCEP, 30 min at 25 C
[1] = biological target: DNMT3BΔ570 WT;DNMT3L MTase-like domain (human;human, UniProt Q9UBC3;Q9UJW3 571-853;179-379, |); details: protein: recombinant;recombinant; tags: 6xHis-SUMO removed by TEV;6xHis removed by TEV; chain copies: 2;2; label: 3'-FAM
DNMT3BΔ570 WT;DNMT3L MTase-like domain, sequence (Q9UJW3 179-379, stated change not applied, chain 2 of 2, other chains not shown): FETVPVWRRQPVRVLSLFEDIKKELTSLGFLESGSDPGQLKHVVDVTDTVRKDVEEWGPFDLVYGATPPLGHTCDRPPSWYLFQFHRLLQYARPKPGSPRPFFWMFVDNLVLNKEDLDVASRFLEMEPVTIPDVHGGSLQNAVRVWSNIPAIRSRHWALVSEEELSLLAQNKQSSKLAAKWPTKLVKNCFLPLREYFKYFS

[2] = biological target: DNMT3BΔ214 R823G;DNMT3L MTase-like domain (human;human, UniProt Q9UBC3;Q9UJW3 215-853;179-379, R823G|); details: protein: recombinant;recombinant; tags: tag (if any) removed by TEV;6xHis removed by TEV; chain copies: 2;2; label: 3'-FAM
DNMT3BΔ214 R823G;DNMT3L MTase-like domain, sequence (Q9UJW3 179-379, chain 2 of 2, other chains not shown): as the sequence (Q9UJW3 179-379, stated change not applied, chain 2 of 2, other chains not shown) above

[3] = biological target: DNMT3BΔ570 R823G;DNMT3L MTase-like domain (human;human, UniProt Q9UBC3;Q9UJW3 571-853;179-379, R823G|); details: protein: recombinant;recombinant; tags: 6xHis-SUMO removed by TEV;6xHis removed by TEV; chain copies: 2;2; label: 3'-FAM
DNMT3BΔ570 R823G;DNMT3L MTase-like domain, sequence (Q9UJW3 179-379, chain 2 of 2, other chains not shown): as the sequence (Q9UJW3 179-379, stated change not applied, chain 2 of 2, other chains not shown) above

[4] = biological target: DNMT3BΔ214 D817G;DNMT3L MTase-like domain (human;human, UniProt Q9UBC3;Q9UJW3 215-853;179-379, D817G|); details: protein: recombinant;recombinant; tags: tag (if any) removed by TEV;6xHis removed by TEV; chain copies: 2;2; label: 3'-FAM
DNMT3BΔ214 D817G;DNMT3L MTase-like domain, sequence (Q9UJW3 179-379, chain 2 of 2, other chains not shown): as the sequence (Q9UJW3 179-379, stated change not applied, chain 2 of 2, other chains not shown) above

[5] = biological target: DNMT3BΔ214 V818M;DNMT3L MTase-like domain (human;human, UniProt Q9UBC3;Q9UJW3 215-853;179-379, V818M|); details: protein: recombinant;recombinant; tags: tag (if any) removed by TEV;6xHis removed by TEV; chain copies: 2;2; label: 3'-FAM
DNMT3BΔ214 V818M;DNMT3L MTase-like domain, sequence (Q9UJW3 179-379, chain 2 of 2, other chains not shown): as the sequence (Q9UJW3 179-379, stated change not applied, chain 2 of 2, other chains not shown) above

[6] = biological target: DNMT3BΔ214 WT;DNMT3L MTase-like domain (human;human, UniProt Q9UBC3;Q9UJW3 215-853;179-379, |); details: protein: recombinant;recombinant; tags: tag (if any) removed by TEV;6xHis removed by TEV; chain copies: 2;2; label: 3'-FAM
DNMT3BΔ214 WT;DNMT3L MTase-like domain, sequence (Q9UJW3 179-379, stated change not applied, chain 2 of 2, other chains not shown): as above

[7] = biological target: DNMT3BΔ214 H814R;DNMT3L MTase-like domain (human;human, UniProt Q9UBC3;Q9UJW3 215-853;179-379, H814R|); details: protein: recombinant;recombinant; tags: tag (if any) removed by TEV;6xHis removed by TEV; chain copies: 2;2; label: 3'-FAM
DNMT3BΔ214 H814R;DNMT3L MTase-like domain, sequence (Q9UJW3 179-379, chain 2 of 2, other chains not shown): as the sequence (Q9UJW3 179-379, stated change not applied, chain 2 of 2, other chains not shown) above

B1: 49-bp FAM dsDNA (dsDNA)
DNA 1: AAAACGAAAAAAAAAAAAAAAAAAAAAAAAAAAAAAAAAAAAAAAAAAA
DNA 2: TTTTTTTTTTTTTTTTTTTTTTTTTTTTTTTTTTTTTTTTTTTCGTTTT
Which results are given for B1?
Kd [1]: 0.07 ± 0.007 µM; Kd [2]: 5.39 ± 0.58 µM; Kd [3]: 0.171 ± 0.008 µM; Kd [4]: 58 ± 6.15 µM; Kd [5]: 7.21 ± 0.78 µM; Kd [6]: 2.73 ± 0.26 µM; Kd [7]: 299 ± 55.8 µM
